“And” between values parts separate entries of the source, which are not always exact repeats. Equal values may be shown once.
Legend:
[1] = biological target: Recombinant major celery allergen Api g 1 (celery); experiment: native MS; ESI FT-ICR, direct infusion, 10 mM ammonium acetate pH 6.9, allergen (monomer) concentration 10 µM
[2] = biological target: Recombinant birch pollen profilin Bet v 2 (birch); experiment: native MS; ESI FT-ICR, direct infusion, 10 mM ammonium acetate pH 6.9, allergen (monomer) concentration 40 µM
[3] = biological target: Recombinant major apple allergen Mal d 1 (apple) (UniProt P43211); experiment: native MS; ESI FT-ICR, direct infusion, 10 mM ammonium acetate pH 6.9, allergen (monomer) concentration 9 µM
[4] = biological target: the molecule itself; experiment: native MS; ESI FT-ICR, direct infusion, 10 mM ammonium acetate pH 6.9, allergen (monomer) concentration 8 µM
[5] = biological target: the molecule itself; experiment: native MS; ESI FT-ICR, direct infusion, 10 mM ammonium acetate pH 6.9, allergen (monomer) concentration 10 µM
native MS = biological target: the molecule itself; experiment: native MS
[6] = biological target: T1, Recombinant birch pollen allergen Bet v 1a (birch), P15494; experiment: native MS; ESI FT-ICR, direct infusion, 10 mM ammonium acetate pH 6.9, allergen (monomer) concentration 40 µM; conditions: remark: other sources report otherwise
T1 chain: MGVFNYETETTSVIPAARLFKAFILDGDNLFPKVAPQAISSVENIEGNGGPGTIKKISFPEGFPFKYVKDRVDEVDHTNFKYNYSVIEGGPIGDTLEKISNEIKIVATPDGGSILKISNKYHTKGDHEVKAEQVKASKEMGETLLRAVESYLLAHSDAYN

Molecule: Recombinant major celery allergen Api g 1 (natural protein)
- stoichiometry N [1]: 2

Molecule: Recombinant birch pollen profilin Bet v 2 (natural protein)
- stoichiometry N [2]: 2 and 3 and 4

Molecule: Recombinant major apple allergen Mal d 1 (from UniProt P43211 1-159) (natural protein)
- stoichiometry N [3]: 2

B1: Recombinant Alternaria alternata allergen Alt a 1 (natural protein)
chain: APLESRQDTASCPVTTEGDYVWKISEFYGRKPEGTYYNSLGFNIKATNGGTLDFTCSAQADKLEDHKWYSCGENSFMDFSFDSDRSGLLLKQKVSDDITYVATATLPNYCRAGGNGPKDFVCQGVADAYITLVTLPKSS
notes: source: bought: Biomay AG (recombinant)
- stoichiometry N [4]: 2

B2: Recombinant rubber tree allergen Hev b 8 (natural protein)
chain: SWQTYVDDHLMCDIDGHRLTAAAIIGHDGSVWAQSSSFPQFKSDEVAAVMKDFDEPGSLAPTGLHLGGTKYMVIQGEPGAVIRGKKGSGGITVKKTGQALIIGIYDEPLTPGQCNMIVERLGDYLLDQGL
- stoichiometry N [5]: 2

B3: Bos d 5 variant A (in native Bos d 5) (natural protein)
chain: LIVTQTMKGLDIQKVAGTWYSLAMAASDISLLDAQSAPLRVYVEELKPTPEGDLEILLQKWENDECAQKKIIAEKTKIPAVFKIDALNENKVLVLDTDYKKYLLFCMENSAEPEQSLVCQCLVRTPEVDDEALEKFDKALKALPMHIRLSFNPTQLEEQCHI
- abundance ratio among the dimeric species (native MS): 18%

B4: Recombinant birch pollen allergen Bet v 1a, P15494 1-160 (natural protein)
chain: T1 chain
- stoichiometry N [6]: 2

B5: Recombinant timothy pollen allergen Phl p 6 (natural protein, UniProt P43215 23-132, looked up)
chain: GKATTEEQKLIEDVNASFRAAMATTANVPPADKYKTFEAAFTVSSKRNLADAVSKAPQLVPKLDEVYNAAYNAADHAAPEDKYEAFVLHFSEALRIIAGTPEVHAVKPGA
notes: as for B1
- stoichiometry N [5]: 2 and 3
